B1: FAM46D (parent)
chain: FQEAMTHLQHKLICTRKPEEIRGG
B2: LCOR (parent)
chain: YKVKERLGTLKNPPKKKMKLMSG

Variants of: B1
Experiment: protein stability index of a GFP-peptide fusion (GPS, HEK-293T) (PSI 1-6); higher = more stable
Conditions: c terminus: a fixed tail appended
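Also: lentivirally expressed fusions sorted by FACS into six bins by GFP to DsRed ratio, PSI derived from sequencing read proportions per bin multiplied by bin number.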

Going from FQEAMTHLQHTLICTRKPEEIRGG to FQEAMTHLQHKLICTRKPEEVRGG, the protein stability index falls from 2.72 to 2.43.

First: FQEAMTHLQHKLICTRKPEETRGG
Second: FQEAMTHLQHKHICTRKPEEIRGG
The protein stability index of the first is higher: 3.56 for the first, 3.44 for the second.

Compared with FQEAMTHLQHKIICTRKPEEIRGG, FQEAMTHLQHKLICARKPEEIRGG is higher in protein stability index: 2.78 for the first, 3.06 for the second.

First: FQEAMTHLQHKLICPRKPEEIRGG
Second: FQEAMTHLQHKLICTRSPEEIRGG
The protein stability index of the first is higher: 3.04 for the first, 2.75 for the second.

First: FQEAMTHLQHKLTCTRKPEEIRGG
Second: FQEAMTHLQHKLGCTRKPEEIRGG
The protein stability index of the first is lower: 2.52 for the first, 2.67 for the second.

Going from FQEAMTHPQHKLICTRKPEEIRGG to FQEAMTHFQHKLICTRKPEEIRGG, the protein stability index falls from 2.99 to 2.42.

Going from FQEAMTHCQHKLICTRKPEEIRGG to FQEAMTHSQHKLICTRKPEEIRGG, the protein stability index rises from 3.23 to 3.62.

Compared with FQEAMTHLQHKLICTRKTEEIRGG, FQEAMTHLQHKLICTRKPSEIRGG is lower in protein stability index: 2.85 for the first, 2.76 for the second.

Going from FQEAMTHLQHKLICTRKPYEIRGG to FQEAMTHLNHKLICTRKPEEIRGG, the protein stability index falls from 2.15 to 1.79.

First: FQEAMTELQHKLICTRKPEEIRGG
Second: FYEAMTHLQHKLICTRKPEEIRGG
The protein stability index of the first is higher: 3.86 for the first, 2.19 for the second.

First: FTEAMTHLQHKLICTRKPEEIRGG
Second: FCEAMTHLQHKLICTRKPEEIRGG
The protein stability index of the first is higher: 2.1 for the first, 1.76 for the second.

Compared with FNEAMTHLQHKLICTRKPEEIRGG, FDEAMTHLQHKLICTRKPEEIRGG is higher in protein stability index: 3.38 for the first, 4.05 for the second.

Compared with FQEAMTHLQHKLICTHKPEEIRGG, FQEAMTHLQHKLICTDKPEEIRGG is higher in protein stability index: 2.6 for the first, 2.68 for the second.

Going from FQEAMTHLQHKLICTRKPEEISGG to FQEAMTHLQHKLICTRKPEEIAGG, the protein stability index rises from 2.66 to 2.85.

Compared with FQEAMTHLQHKLICTRKPEEIFGG, FQEAMTHLQHKLICTRKPEEIYGG is lower in protein stability index: 2.34 for the first, 1.91 for the second.

First: FQEAMTHLQHKLIMTRKPEEIRGG
Second: FQEAMTHLQHKLINTRKPEEIRGG
The protein stability index of the first is lower: 2.38 for the first, 2.71 for the second.

First: FQVAMTHLQHKLICTRKPEEIRGG
Second: FQEAMTHLQHKLICTRKPEAIRGG
The protein stability index of the first is lower: 2.08 for the first, 2.15 for the second.

Compared with FQEAMTHLQFKLICTRKPEEIRGG, FQEAMTHLQCKLICTRKPEEIRGG is higher in protein stability index: 1.73 for the first, 2.72 for the second.

Work on FQEAMTHLQHKLICTRKPEEIRKG yielded a protein stability index of 3.19.

Variants of: B2
Experiment: as above
Conditions: c terminus: native

Going from YKVKERLGTLKNPPKKKMKLMVG to YKVKERLGTLKNPPKKKMKLMPG, the protein stability index rises from 2.09 to 2.45.

Going from YKVKERLGTLKNPPKKKMKLMIG to YKVKERLGTLKNPPKKKMKLMDG, the protein stability index rises from 2.45 to 3.1.

First: YKVKERLGTLKNPPKKKMKLMTG
Second: YKVKERLGTLKNPPKKKMKLMFG
The protein stability index of the first is lower: 2.42 for the first, 2.44 for the second.

First: YKVKERLGTLKNPPKKKMKLMNG
Second: YKVKEREGTLKNPPKKKMKLMSG
The protein stability index of the first is higher: 2.11 for the first, 2.04 for the second.

Compared with YKVKERQGTLKNPPKKKMKLMSG, YKVKERSGTLKNPPKKKMKLMSG is higher in protein stability index: 1.52 for the first, 1.55 for the second.

Compared with YKVKERGGTLKNPPKKKMKLMSG, YKVKERNGTLKNPPKKKMKLMSG is lower in protein stability index: 3.22 for the first, 2.53 for the second.

First: YKVKERFGTLKNPPKKKMKLMSG
Second: YKVKNRLGTLKNPPKKKMKLMSG
The protein stability index of the first is higher: 1.5 for the first, 1.25 for the second.

Going from YKVKVRLGTLKNPPKKKMKLMSG to YKVKDRLGTLKNPPKKKMKLMSG, the protein stability index falls from 2.94 to 1.78.

Compared with YKVKKRLGTLKNPPKKKMKLMSG, AKVKERLGTLKNPPKKKMKLMSG is higher in protein stability index: 2.21 for the first, 2.34 for the second.

First: LKVKERLGTLKNPPKKKMKLMSG
Second: PKVKERLGTLKNPPKKKMKLMSG
The protein stability index of the first is higher: 2.59 for the first, 1.72 for the second.

Going from FKVKERLGTLKNPPKKKMKLMSG to MKVKERLGTLKNPPKKKMKLMSG, the protein stability index rises from 1.23 to 1.93.

Compared with YLVKERLGTLKNPPKKKMKLMSG, YNVKERLGTLKNPPKKKMKLMSG is lower in protein stability index: 3.05 for the first, 1.45 for the second.

Compared with YKEKERLGTLKNPPKKKMKLMSG, YKLKERLGTLKNPPKKKMKLMSG is lower in protein stability index: 2.08 for the first, 1.97 for the second.

Going from YKNKERLGTLKNPPKKKMKLMSG to YKDKERLGTLKNPPKKKMKLMSG, the protein stability index falls from 2.69 to 2.36.

Going from YKSKERLGTLKNPPKKKMKLMSG to YKPKERLGTLKNPPKKKMKLMSG, the protein stability index rises from 1.92 to 2.27.

Going from YKHKERLGTLKNPPKKKMKLMSG to YKGKERLGTLKNPPKKKMKLMSG, the protein stability index falls from 1.89 to 1.67.

First: YKMKERLGTLKNPPKKKMKLMSG
Second: YKCKERLGTLKNPPKKKMKLMSG
The protein stability index of the first is higher: 2.46 for the first, 1.6 for the second.

Going from YKTKERLGTLKNPPKKKMKLMSG to YKKKERLGTLKNPPKKKMKLMSG, the protein stability index rises from 1.91 to 1.98.

Compared with YKVKERLGTLKNPPEKKMKLMSG, YKVKERLGTLKNPPNKKMKLMSG is lower in protein stability index: 2.66 for the first, 2.34 for the second.

First: YKVKERLGTLKNPPQKKMKLMSG
Second: YKVKERLGTLKNPPDKKMKLMSG
The protein stability index of the first is lower: 1.84 for the first, 2.06 for the second.

First: YKVKERLGTLKNPPPKKMKLMSG
Second: YKVKERLGTLKNPPSKKMKLMSG
The protein stability index of the first is higher: 2.99 for the first, 2.17 for the second.

First: YKVKEGLGTLKNPPKKKMKLMSG
Second: YKVKEILGTLKNPPKKKMKLMSG
The protein stability index of the first is lower: 2.21 for the first, 2.49 for the second.

First: YKVKEKLGTLKNPPKKKMKLMSG
Second: YKVKECLGTLKNPPKKKMKLMSG
The protein stability index of the first is lower: 1.11 for the first, 4.96 for the second.

First: YKVKEWLGTLKNPPKKKMKLMSG
Second: YKVKESLGTLKNPPKKKMKLMSG
The protein stability index of the first is lower: 2.79 for the first, 3.27 for the second.

First: YKVKEDLGTLKNPPKKKMKLMSG
Second: YKVKELLGTLKNPPKKKMKLMSG
The protein stability index of the first is lower: 1.46 for the first, 1.84 for the second.

First: YKVKEELGTLKNPPKKKMKLMSG
Second: YKVKERLGTLKNPPKKKMKLMSC
The protein stability index of the first is lower: 2.17 for the first, 2.57 for the second.

Going from YKVKERLGTLKNPPKKKMKLMSS to YKVKERLGTLKNPPKKKMKLMSA, the protein stability index falls from 3 to 2.29.

First: YKVKERLGTLKNPPKKKMKLMSQ
Second: YKVKERLGTLKNPPKKKMKLMSL
The protein stability index of the first is higher: 2.78 for the first, 2.75 for the second.

First: YKVKERLGTLKNPPKKKMKLMSV
Second: YKVKERLGTLCNPPKKKMKLMSG
The protein stability index of the first is higher: 2.11 for the first, 2.02 for the second.

Variant YKVKERLGTLNNPPKKKMKLMSG has a protein stability index of 2.29.

Source: the supplement of paper PMC10567573
